Legend:
[1] = molecular target: VP1 capsid protein on BKV pseudovirions of genotype Ia (BK-D; JF894228) (BK virus genotype Ia (BK-D)); assay: cell-based or functional assay
[2] = molecular target: VP1 capsid protein on BKV pseudovirions of genotype II (GBR-12; AB263920) (BK virus genotype II (GBR-12)); assay: cell-based or functional assay
[3] = molecular target: VP1 capsid protein on BKV pseudovirions of genotype IVc2 (A-66H; AB369093) (BK virus genotype IVc2 (A-66H)); assay: cell-based or functional assay
[4] = molecular target: T1, VP1 pentamer of BKV genotype II (recombinant) (BK virus genotype II, UniProt P14996 30-300); assay: ELISA, coated VP1 pentamer
T1 construct: also called GII; VP1 geno II pentamer; not shown: N-terminal His-tag of pESPRIT002; C-terminal biotin acceptor peptide (BAP) of pESPRIT002

[5] = molecular target: T2, VP1 pentamer of BKV genotype IV (recombinant) (BK virus genotype IV, UniProt P14996 30-300); assay: ELISA, coated VP1 pentamer
T2 construct: also called GIV; VP1 BKV subtype IV; not shown: N-terminal His-tag of pESPRIT002; C-terminal biotin acceptor peptide (BAP) of pESPRIT002

Row | Binder | Neutralization PSV IC50 [1] | Neutralization PSV IC50 [2] | Neutralization PSV IC50 [3] | EC50 [4] | EC50 [5] | binding result [4] | binding result [5]
1 | antibody B9P6 (antibody, V domains shown) VH: EVQLVESGGGLVQPGGSLRLSCAASGFTFRSYTMDWVRQAPGKGLEWVSCISGSSNHKYYADSVRGRFTISRDNAKNSLFLQMNSLRAEDSAVYYCAREDDILTPLYGMDVWGPGTTVTVSS VL: EIVLTQSPDTLSLSPGARATLSCRASQSVRSNYLAWYQQKPGQAPRLLIYGASSRATAIPDRFSGSGSGTDFTLTITRLEPEDFAVYYCHQYGSSPRTFGQGTKVEIK | 0.0371 µg/mL | 0.0002 µg/mL | 0.0176 µg/mL | 0.035 µg/mL | 0.12 µg/mL | – | –
2 | antibody G11P1 (antibody, V domains shown) VH: EVQLVESGGGLVQPGGSLRLSCAASGFTFRSYSMDWVRQAPGKGLEWVSYISGSSNQKYYTDSVRGRFTISRDNAKNSLFLQMNSLRAEDSAVYYCAREDDILTPLYGMDVWGPGTTVTVSS VL: EIVLTQSPDTLSLSPGARATLSCRASQSVRSNYLAWYQQKPGQAPRLLIYGASSRATAIPDRFSGSGSGTDFTLTITRLEPEDFAVYYCHQYASSPRTFGQGTKVEIK | 0.112 µg/mL | 0.0008 µg/mL | 0.02 µg/mL | 0.055 µg/mL | 0.035 µg/mL | – | –
3 | antibody E9P7 (antibody, V domains shown) VH: EVQLVESGGGLVQPGGSLRLSCTASGFTFRSYTMDWVRQAPGKGLEWVSCISGSSNHKYYADSVRGRFTISRDNAKNSLLLQMNSLRAEDSAVYYCAREDDILTPLYGMDVWGPGTTVTVSS VL: EIVLTQSPDTLSLSPGARATLSCRASQSVRSNYLAWYQQKPGQAPRLLIYGASSRATAIPDRFSGSGSGTDFTLTITRLEPEDFAVYYCHQYGSSPRTFGQGTKVEIK | 0.277 µg/mL | 0.0003 µg/mL | 0.0333 µg/mL | 0.1 µg/mL | 0.2 µg/mL | – | –
4 | antibody E11P6 (antibody, V domains shown) VH: EVQLVESGGGLVQPGGSLRLSCAASGFTFRSYSMDWVRQAPGKGLEWVSYISGSSNQKYYTDSVRGRFTISRDNAKNSLFLQMNSLRAEDSAVYYCAREDDILTPLYGMDVWGPGTTVTVSS VL: EIVLTQSPDTLSLSPGARATLSCRASQSVRSNYLAWYQQKPGQAPRLLIYGASSRATAIPDRFSGSGSGTDLTLTITRLEPEDFAVYYCHQYASSPRTFGQGTKVEIK | 0.216 µg/mL | 0.0028 µg/mL | 0.0452 µg/mL | 0.09 µg/mL | 0.12 µg/mL | – | –
5 | antibody E10P2 (antibody, V domains shown) VH: EVQLLESGGALVQPGGSLRLSCAASGFTFRSYAMNWVRQAPGKGLEWVSSLSSSGTTTYYADSVKGRFTISRDNSKNTMYLQMDSLRGEDTAVYYCAKDRNAQWLGSEPLDPWGQGTLVTVSS VL: EIVLTQSPGTLSLSPGERATLSCRASQSVSSSYLAWYQQKPGQAPRLLIYGASSRATGIPDRFSGSGSGTDFTLTISSLQPDDFAIYYCQQAYTFPWTFGQGTKLEIK | 1.64 µg/mL | 20.1 µg/mL | > 50 µg/mL | – | – | no binding (tested: starting at 50 µg/mL) | no binding (tested: starting at 50 µg/mL)
6 | antibody C10P8 (antibody, V domains shown) VH: QVQLQESGPGLVKPSQTLSLTCTVSGGSISSGRYYWSWIRQPAGKGLEWIGRVYFSGSTNYNPSLKNRVTLSVDTSKNQFSLKLSSVIAADTAVYYCARAVRDYGDSYSFDYWGQGTLVTVSS VL: QSALTQPASVSGSPGQSITISCTGSSSDIGGYNYVSWYQVHPGKAPHLKIYDVVNRPSGVSNRFPGSKSGNTASLTISGLLADDEAYYYCCSYSIRGTPVFGGGTKLTVL | > 12.5 µg/mL | > 12.5 µg/mL | > 12.5 µg/mL | – | – | – | –
7 | antibody B3P3 (antibody, V domains shown) VH: EVQLVESGGGVVQPGRSLRLSCVTSGFTFESYGIHWVRQAPGKGLEWVAVISNDGSIEDYAGSVKGRFTISGDKAKNTVYLQVNSLRPDDTAVYYCAKDAVGITGGSLYYSYGMDVWGQGTTVTVSS VL: DIQMTQSPSPLSAFIGGRVTITCRASQTIKNYLNWYQQKPGEAPKLLIYTASTLQNGVPSRFSGSRSGTDFTLTITSLQPEDFATYYCQQSYSAPYSFGQGTKLEIK | > 50 µg/mL | > 50 µg/mL | > 50 µg/mL | – | – | – | –
8 | antibody B10P5 (antibody, V domains shown) VH: EVQLVESGGGLVQPGGSLRLSCSASGFTFSTYTMNWVRQAPGKGLDWVSYISSRSTSIYYADSVKGRFTISRDNAKNSLYLHMTSLRAEDTAVYYCVRDRGYYGSNWFDSWGQGTLVTVSS VL: QSALTQPRSVSGSPGQSVTISCTGTSSDVGNYNYVSWYQQHPGKAPRLMISDVTKRPSGVPDRFSGSKSGNTASLTISGLQAEDEGDYYCCAYAGSYTLVFGGGTKLTVL | > 50 µg/mL | > 50 µg/mL | > 50 µg/mL | – | – | – | –
9 | antibody B7P3 (antibody, V domains shown) VH: EVQLVESGGGVVQPGRSLRLSCAASGFTFSNFGMHWVRQPPGKGLEWVAVISYDGSDKFYADSVKGRFTISRDNFKNTLYVQMNSLRAEDTAVYYCAKDRVRTKYYYDHSGPFDYWGRGTLVTVSS VL: SYVLTQPPSVSVAPGQTARIACGGNNIGSKSVHWYQQRPGQAPVLVVYDDDDRPSGIPERFSGSNSGNTATLTISRVEAGDEADYFCQVWMTNSDRPVFGGGTKLTVL | 0.0004 µg/mL | 3.43 µg/mL | > 50 µg/mL | – | – | – | –
10 | antibody G7P3 (antibody, V domains shown) VH: EVQLVESGGGLVQPGGSLRLSCAASGFSFGSYSMNWVRQAPGKGLEWVSHISSGSSSIYYADSVKGRFTISRDSVKNSLYLQMNNLRAEDTAVYYCARGWTGYDAFDIWGQGTMVTVSS VL: DIQMTQSPSSLSASVGDRVTITCRASQVISNYLAWYQEKPGKVPKLLIYAASTLQSGVPSRFSGSGTGTDFTLTIRSLQPEDVATYYCQKYNNAPLTFGGGTKVEIK | 0.0008 µg/mL | 0.0054 µg/mL | > 50 µg/mL | – | – | – | –
11 | antibody E8P5 (antibody, V domains shown) VH: EVQLVESGGGLVHPGGSLRLSCAASGFRFGTYSMNWVRQAPGKGLEWVSHISSGSSSIYYADSVKGRFTISRDSVKNSLYLQMNNLRAEDTAVYFCARGWTGYDAFDIWGQGTMVTVSS VL: DIQMTQSPSSLSASVGDRVTITCRASQVISNYLAWYQEKPGEVPKLLIYAASTLQSGVPSRFSGSGTGTDFTLTISSLQPEDVATYYCQKYNNAPLTFGGGTKVEIK | 0.0013 µg/mL | 0.004 µg/mL | > 50 µg/mL | – | – | – | –
12 | antibody E10P5 (antibody, V domains shown) VH: QVQLQESGPGLVKPSQTLSLTCSVSGGSISSGNYYWSWIRQPAGKGLEWIGRIYTSGNTNYNPSLKSRVTMSVDTSKNQFSLKLSSVTATDTAVYYCARVRRDGYNAFDYWGQGTLVTVSS VL: SYELTQPPSVSVSPGQTASIDCSGHNLGDKFTCWYQQKPGQSPVLVIYQDSKRPSGIPERFSGSNSGNTATLTISGTQAMDEADYYCQAWDSDTLYVFGTGTTVTVL | 0.0004 µg/mL | 0.0433 µg/mL | > 50 µg/mL | – | – | – | –
13 | antibody F11P5 (antibody, V domains shown) VH: QVQLVQSGSELKKPGASVKVSCKASAYTFTNSAINWVRQAPGQGLEWMGWINTNTGNPAYAQGFRGRFVFSLDTSVSEAYLQISNLKAEDTATYYCTVPYNFGGDHNSYYFFGVDIWGQGTTVTVSS VL: QSALTQPASVSGSPGQSITISCTGSSSDVGSYNLVSWFQQHPAKAPKVMIYEGTKRPSGVSDRFSGSKSGNTASLTISGLQAEDEADYYCCSYAGSNTFVFGTGTKVSVL | 0.492 µg/mL | 1.56 µg/mL | 46.5 µg/mL | – | – | – | –
14 | antibody C6P8 (antibody, V domains shown) VH: EVQLVESGGGLVQPGGSLKLSCAASGFTFSGSEIHWVRQASGKGLEWIGRVRSRANRHATGYSESVKGRFTISRDDSKNTASLQLNSLKIEDTAVYYCTGVRGVISRYFAMDVWGQGTTVTVSS VL: SYVLTQTPSVSVAPGQTARITCGGNNIGSNSVHWYQQKPGQAPILVVYDDSERPSGIPERFSGSNSGNTATLTISRVEGGDEADYQCQVWDRRGDLLVFGGGTKLTVL | 6.92 µg/mL | 0.44 µg/mL | 1.74 µg/mL | 3 µg/mL | 4 µg/mL | – | –
15 | antibody C4P7 (antibody, V domains shown) VH: EVQLLESGGGLVQPGGSLRLSCAASGFTFSSYAMSWVRQAPGKGLEWVSSLTGSGGSTYYRDSVKGRFTIFRDNSKKTLYMQMNSLRAEDTAVYYCAKEGAYSYDFWYFDLWGRGTLVTVSS VL: EIVLTQSPGTLSLSPGERATLSCRASQTVSGNYLAWYQQKPGQSPSLLIYGASSRATGIPDRFTGSGSGTDFTLTISRLEPADFAVYYCQQYGRPLTFGGGTKVEIK | 0.493 µg/mL | 0.0609 µg/mL | > 3.12 µg/mL | – | – | – | –
16 | antibody C10P7 (antibody, V domains shown) VH: QVQLVQSGSEVKKPGTSVKVSCKASGETYVGHSISWVRQAPGAGLEWMGWISLHNGNVKYAQKLQGRVTMTTDTSTITAYMELRNLTSDDTAVYYCARVPMKIYGVIVFGEYYYDQLDVWGQGTTVTVSS VL: QSALTQPPSASGSPGQSVTISCTGTGSDVGGYNYVSWYQQHPGKAPKLMIYEVSKRPSGVPDRFSGSKSGNTASLTVSGLQAEDEADYYCSSYAGSKVVFGGGTKLTVL | 6.56 µg/mL | 11.2 µg/mL | > 50 µg/mL | 8 µg/mL | 18 µg/mL | – | –

Reference: patent publication EP4659811A1 (Université de Strasbourg, dated 2025)
